± gives the standard error. Variants at the floor of the assay were thinned out.
B1: glmS ribozyme (parent)
chain: AUAAAAGCGCCAGAACUACAGAAAUGUAGUUGACGAGGAGGAGGUUUAUCGAAUUUUCGGCGGAUGCCUCCAAA

Columns and labels:
Settings in all cases: with glucosamine-6-phosphate
[1] = variants of: B1; experiment: self-cleavage kobs at 640 uM GlcN6P; higher = faster cleavage; RNA array
How it was run: (§1)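 kobs was derived by fitting per-tile medians to one- or two-exponential decays after normalising signals to baseline and to non-cleaving reference variants. Those signals came from barcoded ribozyme variants transcribed in situ by E. coli RNA polymerase on sequenced MiSeq chips, followed through a hybridised Cy3 probe at 37 °C and imaged over ~14 h. Glucosamine-6-phosphate (40 μM to 10 mM) in HEPES/KCl/Mg(OAc)2 buffer was flowed in. Weighted Michaelis–Menten fits across concentrations then gave kcat and KM.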

[2] = variants of: B1; experiment: self-cleavage kobs at 2500 uM GlcN6P; higher = faster cleavage; RNA array
How it was run: as §1

[3] = variants of: B1; experiment: self-cleavage kobs at 10000 uM GlcN6P; higher = faster cleavage; RNA array
How it was run: as §1

| Variant | self-cleavage kobs at 640 uM GlcN6P [1] [s⁻¹] | self-cleavage kobs at 2500 uM GlcN6P [2] [s⁻¹] | self-cleavage kobs at 10000 uM GlcN6P [3] [s⁻¹] |
| --- | --- | --- | --- |
| C50G A52U C70U | 0.000121 ± 5e-05 |  |  |
| A52C U57G U69G | 8.06e-05 ± 2.8e-05 |  |  |
| G38A A48C | < 1e-05 | < 1e-05 | < 1e-05 |
| A15G A42U C71U | 7.41e-05 ± 1.8e-05 | 0.000188 ± 5.3e-05 |  |
| A48G C50G C58G | 0.000184 ± 8.1e-05 |  |  |
| A14G A33G G41U A48C U69G | < 1e-05 | < 1e-05 |  |
| C34A G38U U54A | < 1e-05 | < 1e-05 |  |
| G7A G38C C58A | < 1e-05 | < 1e-05 |  |
| A6C A14U U55G | < 1e-05 |  |  |
| U47G C70U C71G | 0.000118 ± 2.3e-05 |  |  |
| A6G A36G G41A | < 1e-05 |  | < 1e-05 |
| A42G G43A G44C | < 1e-05 | < 1e-05 |  |
| G7U G9U U31A G37A A52C C67U U69C | < 1e-05 |  |  |
| A12U A15C C71A | 0.000661 ± 0.00015 | 0.0015 ± 0.00053 |  |
| U30G G37U U55C C58G | < 1e-05 |  |  |
| G32A A33G C50A | < 1e-05 |  | < 1e-05 |

| Variant | self-cleavage kobs at 640 uM GlcN6P [1] [s⁻¹] | self-cleavage kobs at 2500 uM GlcN6P [2] [s⁻¹] | self-cleavage kobs at 10000 uM GlcN6P [3] [s⁻¹] |
| --- | --- | --- | --- |
| C34G A39U U49G | < 1e-05 |  |  |
| G9A G60A C68G | < 1e-05 |  |  |
| U31C A42G G66A | 0.000315 ± 9.6e-05 | 0.00117 ± 0.00033 |  |
| G9U C58G G59C | < 1e-05 | < 1e-05 |  |
| G7U A12G A48U G63U | < 1e-05 |  |  |
| G35A C50U G62C C68G | < 1e-05 |  |  |
| U31C G51C C71A | < 1e-05 |  |  |
| G13C G32A U45A A52U G60A G62C A64G C68U | < 1e-05 | < 1e-05 |  |
| G51U U55C | < 1e-05 |  | < 1e-05 |
| A15C G37A A42G | 8.69e-05 ± 3e-05 | 0.000171 ± 4.6e-05 |  |
| A15U A33G G44U A48U | < 1e-05 | < 1e-05 | < 1e-05 |
| G9U C16G G29U G40U G41A G66U | < 1e-05 | < 1e-05 |  |
| C8U U30A U31C A48U C68U | < 1e-05 | < 1e-05 |  |
| G40A A42U A48U | < 1e-05 |  |  |
| A33C A53G | 3.89e-05 ± 1.4e-05 | 7.39e-05 ± 1.3e-05 | 0.000235 ± 3.8e-05 |
| C10A A36U G62A | < 1e-05 |  |  |

Source: the supplement of paper PMC7125110
